Where two headings read alike, the source gives them in different places.
Columns and labels:
[1] = test system: relapsed or refractory AML and CML; conditions: cited from earlier work
CD33 [2] = molecular target: T1, CD33 (Homo sapiens, UniProt P20138); conditions: human peripheral blood mononuclear cells as effectors, cited from earlier work
CD33 [3] = molecular target: T1, CD33; conditions: higher than M195; cited from earlier work
AML [4] = assay: Phase 2 portion, monotherapy without LDAC in AML patients unfit for cytotoxic chemotherapy; format: in vivo, human
Text: (§1) Preliminary data are available on 9 with median age 75 years (range, 65-82) and PS median 2 (0-1 in 2 patients, […], & 3 in 2 patients). Six (67%) had prior treatment for AHDs (5 MDS, 1 atypical CML). At baseline, 5 patients had ANC≥500/μL, only 2 had ANC≥1000/μL, and only 1 had platelets >50,000/μL.
The 30-day mortality rate was 33% (disease progression, acute on chronic respiratory failure, and post-traumatic intracranial hemorrhage after a fall).
Objective responses were documented in 5 of the 9 patients (56%): 2 Complete Remissions with incomplete platelet count recovery (CRp) and 3 Complete Remissions with incomplete hematologic recovery (CRi). Two patients had resistant disease.
The two patients with CRp had neutrophil recovery at Days 60 and 36. Two of the patients with CRi had not reached ANC≥500/μL when they expired from infection on days 65 and 56, and the third is at day 66+ without ANC recovery. Since patients with antecedent hematologic disorders (AHDs) may not have capacity to recover to normal neutrophil production, patients without AHDs may be more informative. Of the 3 patients without AHDs, 1 had ANC recovery at Day 36, 1 had death from infection at Day 56 without ANC recovery, and 1 is pending ANC recovery at Day 66+. […]

[5] = test system: peripheral blood and bone marrow cells; assay: Reactivity with peripheral blood and bone marrow cells from frozen tissues; format: binding; conditions: nonhuman primate and human frozen tissues
HL60 (leukemia cells) = assay: Cytotoxicity against HL60 cell suspensions; format: cell-based
relapsed/refractory AML = assay: Dose escalation (MTD) in patients with relapsed/refractory AML; format: in vivo, human
Procedure: A maximum tolerated dose (MTD) of a single injection of the radiolabeled lintuzumab was determined to be 3 uCi/kg patient weight. As a split dose (e.g., 2 equal doses administered 4-7 days apart), the MTD was determined to be 2 uCi/kg per dose, or 4 uCi/kg total. […] Determination of MTD was based on the severity of the adverse effects observed at each dose level. Anti-leukemic effects included elimination of peripheral blood blasts in 13 of 19 evaluable patients. Twelve of 18 patients who were evaluable at 4 weeks following treatment had reductions in bone marrow blasts, including nine with reductions ≥50%. Three patients treated with 1 uCi/kg, 3 uCi/kg and 4 uCi/kg respectively had ≤5% blasts after therapy.

AML [6] = assay: Phase 1 clinical trial, fractionated doses combined with low dose Ara-C (LDAC); format: in vivo, human; conditions: fractionated doses on days 1 and 8 combined with LDAC
Text: as §1

[7] = four clinical trials, native HuM195 alone
[8] = 2 μCi/kg/fraction monotherapy, preliminary
[9] = 2 equal doses administered 4-7 days apart

T1 sequence (P20138 18-364): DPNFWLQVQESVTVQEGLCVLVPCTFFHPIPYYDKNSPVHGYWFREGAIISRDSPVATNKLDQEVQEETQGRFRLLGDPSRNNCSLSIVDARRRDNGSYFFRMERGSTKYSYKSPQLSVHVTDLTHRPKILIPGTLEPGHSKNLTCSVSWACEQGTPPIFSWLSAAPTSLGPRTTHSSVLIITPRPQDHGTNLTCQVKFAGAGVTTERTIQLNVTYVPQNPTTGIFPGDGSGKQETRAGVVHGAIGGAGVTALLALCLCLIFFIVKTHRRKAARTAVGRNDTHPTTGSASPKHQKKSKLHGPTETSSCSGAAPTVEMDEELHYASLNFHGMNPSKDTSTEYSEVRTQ

Substance: HuM195: recombinant humanized anti-CD33 monoclonal antibody
- single agent activity in AML ([1]; even at supra-saturating doses that fully blocked CD33 binding sites throughout a 4-week period): very modest activity
- human anti-human antibody responses [1, 7]: not seen
- most common toxicities [1, 7]: Fever, chills, and nausea
- reduction in marrow blast cells [1, 7]: seen in some patients
- antibody-dependent cell-mediated cytotoxicity (ADCC) (CD33 [2]): induced antibody-dependent cell-mediated cytotoxicity
- antibody-dependent cell-mediated cytotoxicity (ADCC) (CD33 [2]; listed as lintuzumab): demonstrated antibody-dependent cell-mediated cytotoxicity
- binding avidity relative to M195 (CD33 [3]): greater than 8 fold

Substance: lintuzumab-Ac^225: Lintuzumab conjugated with Actinium-225 (Ac^225)
- 30-day mortality rate (AML [4]; 2 μCi/kg/fraction): 33%
- Grade >3 non-hematologic toxicities reported in ≥1 pt (AML [4]; 2 μCi/kg/fraction): pneumonia and cellulitis
- platelet counts >20,000/μL without transfusions (AML [4]; 2 μCi/kg/fraction): No patients reached platelet counts >20,000/μL without transfusions
- veno-occlusive disease (AML [4]; 2 μCi/kg/fraction): did not occur
- objective response rate (AML [4]; [8]): 56%
- objective responses (patients) (AML [4]; [8]): 5 of the 9
- myelosuppression (AML [4]; 2 μCi/kg/fraction, days 1 and 8, preliminary data on 9 patients): seen in all evaluable patients
- grade 4 thrombocytopenia with marrow aplasia for >6 weeks following therapy (AML [4]; 2 μCi/kg/fraction, preliminary data on 9 patients): 3 patients
- median time to neutrophil recovery (ANC≥500/μL) (AML [4]; from the first dose, range 20-60): 36 days
- Complete Remissions with incomplete hematologic recovery (CRi) (AML [4]; of 9 patients): 3
- Complete Remissions with incomplete platelet count recovery (CRp) (AML [4]; of 9 patients): 2
- patients with resistant disease (AML [4]; of 9 patients): Two
- reactivity with peripheral blood and bone marrow cells (specificity) [5]: reactivity with mononuclear cells only
- dose at which 50% of the cells were killed (LD50) (HL60 (leukemia cells)): 8 μCi per mL of cell suspension
- elimination of peripheral blood blasts (relapsed/refractory AML; 0.5 uCi/kg to 4 uCi/kg): 13 of 19
- MTD, split dose, per dose (relapsed/refractory AML; [9]): 2 uCi/kg per dose
- MTD, split dose, total (relapsed/refractory AML; [9]): 4 uCi/kg total
- patients with reductions in bone marrow blasts ≥50% (relapsed/refractory AML; of 18 evaluable at 4 weeks): nine
- maximum tolerated dose (MTD), single injection (relapsed/refractory AML; single injection): 3 uCi/kg patient weight
- patients with ≤5% blasts after therapy (relapsed/refractory AML; treated with 1 uCi/kg, 3 uCi/kg and 4 uCi/kg respectively): Three
- dose at which treatment induced remissions (AML [6]): above 0.5 uCi/kg/fraction

Source: patent US20210179710A1, “COMBINATION IMMUNOTHERAPY AND CHEMOTHERAPY FOR THE TREATMENT OF A HEMATOLOGICAL MALIGNANCY” (Actinium Pharmaceuticals, Inc., priority 2018, published 2021)
